Measurements as given in patent US9658208B2, “Methods and G proteins for screening and identifying ligands of G protein-coupled receptors” (Fred Hutchinson Cancer Research Center, priority 2011, dated 2017).

Target: T1, sweet receptor heterodimer (T1R2/T1R3) (Mus musculus, UniProt Q925D8+Q925I4)
T1 construct: expressed in transfected cells; host or cells: HEK-293
T1 sequence (Q925I4 20-843): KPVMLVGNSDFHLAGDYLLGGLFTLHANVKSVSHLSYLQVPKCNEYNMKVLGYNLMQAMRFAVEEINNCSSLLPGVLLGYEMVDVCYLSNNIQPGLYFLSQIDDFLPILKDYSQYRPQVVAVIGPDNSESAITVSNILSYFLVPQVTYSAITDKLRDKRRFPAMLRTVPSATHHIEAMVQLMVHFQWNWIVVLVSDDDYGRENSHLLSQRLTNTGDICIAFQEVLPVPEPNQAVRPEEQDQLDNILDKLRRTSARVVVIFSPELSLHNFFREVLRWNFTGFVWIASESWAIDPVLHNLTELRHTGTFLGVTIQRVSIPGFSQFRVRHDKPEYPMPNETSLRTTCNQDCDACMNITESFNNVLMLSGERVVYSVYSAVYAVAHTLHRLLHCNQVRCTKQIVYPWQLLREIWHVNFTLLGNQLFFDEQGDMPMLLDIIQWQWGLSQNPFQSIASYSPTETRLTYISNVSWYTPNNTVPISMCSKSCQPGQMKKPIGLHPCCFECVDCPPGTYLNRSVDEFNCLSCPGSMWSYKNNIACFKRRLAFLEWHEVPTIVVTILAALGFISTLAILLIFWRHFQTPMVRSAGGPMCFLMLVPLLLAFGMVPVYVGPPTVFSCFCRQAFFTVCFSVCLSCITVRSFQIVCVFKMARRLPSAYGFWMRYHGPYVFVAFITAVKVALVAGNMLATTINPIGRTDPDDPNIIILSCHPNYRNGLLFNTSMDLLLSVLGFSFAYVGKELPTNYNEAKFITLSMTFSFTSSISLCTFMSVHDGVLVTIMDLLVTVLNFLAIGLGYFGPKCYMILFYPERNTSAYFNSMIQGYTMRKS
T1 sequence (Q925D8 21-858): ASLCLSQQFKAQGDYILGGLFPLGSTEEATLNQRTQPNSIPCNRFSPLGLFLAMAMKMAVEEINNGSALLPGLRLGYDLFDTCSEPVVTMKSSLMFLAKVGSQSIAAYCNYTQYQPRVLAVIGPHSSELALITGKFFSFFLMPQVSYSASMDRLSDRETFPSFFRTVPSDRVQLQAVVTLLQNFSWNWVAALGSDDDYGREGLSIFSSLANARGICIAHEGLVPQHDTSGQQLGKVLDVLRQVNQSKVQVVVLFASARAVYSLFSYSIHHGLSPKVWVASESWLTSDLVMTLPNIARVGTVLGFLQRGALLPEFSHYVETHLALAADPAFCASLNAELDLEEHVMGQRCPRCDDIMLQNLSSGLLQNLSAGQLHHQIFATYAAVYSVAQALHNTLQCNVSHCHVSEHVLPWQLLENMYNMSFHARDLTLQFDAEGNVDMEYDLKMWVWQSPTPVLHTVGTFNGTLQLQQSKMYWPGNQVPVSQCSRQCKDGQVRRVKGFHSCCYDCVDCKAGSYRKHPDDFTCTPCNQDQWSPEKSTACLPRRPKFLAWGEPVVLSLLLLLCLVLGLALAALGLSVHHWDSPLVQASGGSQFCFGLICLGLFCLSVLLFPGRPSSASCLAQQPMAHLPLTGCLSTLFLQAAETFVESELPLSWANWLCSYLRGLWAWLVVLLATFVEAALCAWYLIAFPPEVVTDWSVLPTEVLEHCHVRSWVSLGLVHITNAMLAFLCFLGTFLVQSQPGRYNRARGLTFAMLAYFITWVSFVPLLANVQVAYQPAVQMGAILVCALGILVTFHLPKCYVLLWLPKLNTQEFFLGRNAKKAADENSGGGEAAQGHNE
Assay: CRE-SEAP reporter gene assay, coupling with sweet receptor
Type: cell-based
Conditions: HEK-293 cells cotransfected with T1R2 and T1R3; 5 mM saccharin
Excerpt: The GPCRs examined were those that couple with Gαi/Gαo subunits (serotonin 1b, neuropeptide Y1, leukotriene B4, and dopamine D4), Gαq (GNRH, UDP, and calcium-sensing receptors), and the orphan mammalian sweet taste receptor complex (T1R2 and T1R3) with unknown coupling preference. The Gαs-based chimeric G proteins examined in this example were Gαs-Gαi-5, Gαs-Gαt-13 (SEQ ID NO: 3), Gαs-Gαo-13 (SEQ ID NO: 4), Gαs-Gαi-13 (SEQ ID NO: 5), Gαs-Gαz-6 (SEQ ID NO: 18), Gαs-Gα15-13 (SEQ ID NO: 7), Gαs-Gαk-5 (SEQ ID NO: 2), and Gαs-Gαq-13 (SEQ ID NO: 8). The chimeric G protein constructs were prepared as described herein. For the coupling assay, HEK-293 cells were cotransfected with each of the Gαs-based chimeric G protein constructs of interest together with the CRE-SEAP reporter gene construct and a cDNA encoding the GPCR to be tested. The transfected cells were cultured in the presence or absence of a GPCR ligand and then assayed for SEAP activity.
Also tested was whether the chimeric G proteins disclosed herein can be used to detect the activation of GPCRs whose G protein coupling preference is unknown, as is the case with orphan GPCRs. […]
Following transfection, the cells were maintained for 48 hours in 200 ul serum free media containing GPCR ligand. […] Fluorescence was then measured using a CytoFluor 4000 multi well plate reader (Applied Biosystems).

B1: Gαs-Gαt-13: Gαs-based chimeric G protein, final 13 C-terminal amino acids substituted with those of Gαt (protein)
chain: MGCLGNSKTEDQRNEEKAQREANKKIEKQLQKDKQVYRATHRLLLLGAGESGKSTIVKQMRILHVNGFNGEGGEEDVPDYASNSDGEKATKVQDIKNNLKEAIETIVAAMSNLVPPVELANPENQFRVDYILSVMNVPNFDFPPEFYEHAKALWEDEGVRACYERSNEYQLIDCAQYFLDKIDVIKQADYVPSDQDLLRCRVLTSGIFETKFQVDKVNFHMFDVGGQRDERRKWIQCFNDVTAIIFVVASSSYNMVIREDNQTNRLQEALNLFKSIWNNRWLRTISVILFLNKQDLLAEKVLAGKSKIEDYFPEFARYTTPEDATPEPGEDPRVTRAKYFIRDEFLRISTASGDGRHYCYPHFTCAVDTENIRRVFNDCRDIIIKENLKDCGLF
modifications: Chimeric protein
notes: Gαs-based chimeric G protein, final 13 C-terminal amino acids substituted with those of Gαt
- increase in SEAP activity: about two
